Biological target: postfusion gB (ectodomain of wild type) (herpes simplex virus 1 (HSV-1), UniProt A1Z0P7)
Assay: grating-coupled interferometry; gB immobilised by C-terminal Twin-Strep-tag on Strep-Tactin XT chip (400 pg mm^-2); 25 °C; 20 mM HEPES pH 8.0, 300 mM NaCl; waveRAPID tight binder protocol, 200 nM Nb1_gbHSV, regeneration with 3 M GuHCl
Conditions: both partners purified

B1: Nb1_gbHSV (VHH)
VHH: QVQLVESGGGSVQPGGSLRLSCAASASGRLSMSGALGWYRQVQGKSRELVATITDRSSTNYADSVKGRFTISIDDAENTMYLQMNSLKPEDTGVYYCNARWRGMNVWGKGTRVTVSS
notes: alpaca VHH from an immune library; Unlabelled form used for grating-coupled interferometry, cryo-EM with stabilized HSV-1 gB and plaque reduction; also called the nanobody; neutralizing nanobody; source: E. coli SHuffle Express, cytoplasmic, purified (Ni2+ chelate column, eluted by cleaving the tag with Ulp1p)
  binding result: no binding (tested: 200 nM)

From paper PMC12507662 (Nature, 2025)
